# Patent US20200048331A1 (CANIMGUIDE THERAPEUTICS, published 2020)
# Where no end group is shown, it is not given here. The star is where a group is joined. Cam = NC(=O)C*
# Target: artificial cell surface (ACS): biotinylated cell surface proteins from human mononuclear blood cells coupled to streptavidin-sepharose
# Test: ACS affinity column adsorption of tryptic dHSA peptides, MALDI-TOF ms
row,"Per cent adsorbed (per cent adsorbed, printed as fraction)",Molecule
1,0.01,DDNPNLPR [HSA tryptic peptide residues 131-138 DDNPNLPR]
2,0.35,LCTVATLR (Cys alkylated with iodoacetamide (from dHSA)) [HSA tryptic peptide residues 098-105 LCTVATLR]
3,0.02,LDELRDEGK [HSA tryptic peptide residues 206-214 …]
4,-0.02,LVNEVTEFAK [HSA tryptic peptide residues 066-075 …]
5,-0.37,YKAAFTEC(Cam)C(Cam)QAADK [HSA tryptic peptide residues 185-198 …]
6,-0.08,ETYGEMADC(Cam)C(Cam)AK [HSA tryptic peptide residues 106-117 …]
7,0.41,FQNALLVR [HSA tryptic peptide residues 427-434 FQNALLVR]
8,0.23,AVMDDFAAFVEK [HSA tryptic peptide residues 570-581 …]
9,0.29,AAFTEC(Cam)C(Cam)QAADK [HSA tryptic peptide residues 187-198 …]
10,0.42,RPC(Cam)FSALEVDETYVPK [HSA tryptic peptide residues 509-524 …]

# The remaining lines, values behind:
row,Molecule,"Per cent adsorbed (per cent adsorbed, printed as fraction)"
1,HSA tryptic peptide residues 439-452 …,0.59
2,HSA tryptic peptide residues 438-452 …,0.64
3,YIC(Cam)ENQDSISSK [HSA tryptic peptide residues 287-298 …],0.03
4,KYLYEIAR [HSA tryptic peptide residues 161-168 KYLYEIAR],0.71
5,VHTEC(Cam)C(Cam)HGDLLEC(Cam)ADDR [HSA tryptic peptide residues 265-281 …],0.13
6,FKDLGEENFK [HSA tryptic peptide residues 35-44 …],0.08
7,NECFLQHK (Cys alkylated with iodoacetamide (from dHSA)) [HSA tryptic peptide residues 123-130 NECFLQHK],0.22
8,SLHTLFGDK [HSA tryptic peptide residues 089-097 …],0.36
9,LKEC(Cam)C(Cam)EKPLLEK [HSA tryptic peptide residues 299-310 …],0.36
10,KVFDEFKPLVEEPQNLIKQ [HSA tryptic peptide residues 397-413 …],0.6
11,QNC(Cam)ELFEQLGEYK [HSA tryptic peptide residues 414-426 …],0.2
12,C(Cam)C(Cam)TESLVNR [HSA tryptic peptide residues 500-508 …],0.26
13,C(Cam)C(Cam)AAADPHEC(Cam)YAK [HSA tryptic peptide residues 384-396 …],0.32
14,YLYEIAR [HSA tryptic peptide residues 162-168 YLYEIAR],0.34

# Target: artificial cell surface (ACS): biotinylated cell surface proteins from human mononuclear blood cells coupled to streptavidin-sepharose
# Test: ACS affinity column adsorption of ASP-N dHSA peptides (700-3600 Da), MALDI-TOF ms
row,"Per cent adsorbed (per cent adsorbed, printed as fraction)",Molecule
1,1,DHVKLVNEVTEFAKTC(Cam)VA [HSA ASP-N peptide residues 62-79 …]
2,1,DDKETC(Cam)FAEEGKKLVAASQAALGL [HSA ASP-N peptide residues 586-609 …]

# The next lines start with the molecule.
row,Molecule,"Per cent adsorbed (per cent adsorbed, printed as fraction)"
1,DETYVPKEFNAETFTHA [HSA ASP-N peptide residues 518-535 …],0.86
2,DSISSKLKEC(Cam)C(Cam)EKPLLEKSHC(Cam)IAEVEN [HSA ASP-N peptide residues 293-319 …],0.65
3,DKLC(Cam)TVATLRETYGEM [HSA ASP-N peptide residues 96-112 …],0.65
4,DRVTKC(Cam)C(Cam)TESLVNRRPC(Cam)FSALEV [HSA ASP-N peptide residues 495-517 …],0.87

# Target: artificial cell surface (ACS): biotinylated cell surface proteins from human mononuclear blood cells coupled to streptavidin-sepharose
# Test: ACS affinity column adsorption of ASP-N dHSA peptides (3200-9000 Da), MALDI-TOF ms
row,"Per cent adsorbed (per cent adsorbed, printed as fraction)",Molecule
1,1,HSA ASP-N peptide residues 96-130 …
2,0.37,YLSVVLNQLC(Cam)VLHEKTPVSDRVTKC(Cam)C(Cam)TESLVNRRPC(Cam)FSALEV [HSA ASP-N peptide residues 475-517 …]
3,1,IC(Cam)TLSEKERQIKKQTALVELVKHKPKATKEQLKAVM [HSA ASP-N peptide residues 536-572 …]
4,1,LGEENFKALVLIAFAQYLQQC(Cam)PFEDHVKLVNEVTEFAKTC(Cam)VA [HSA ASP-N peptide residues 37-79 …]
5,1,VFLGMFLYEYARRHPDYSVVLLLRLAKTYETTLEKC(Cam)C(Cam)AAA [HSA ASP-N peptide residues 348-388 …]

# Second part, the molecule before the results:
row,Molecule,"Per cent adsorbed (per cent adsorbed, printed as fraction)"
1,LAKYIC(Cam)ENQDSISSKLKEC(Cam)C(Cam)EKPLLEKSHC(Cam)IAEVEN [HSA ASP-N peptide residues 283-319 …],1
2,YSVVLLLRLAKTYETTLEKC(Cam)C(Cam)AAADPHEC(Cam)YAKVF [HSA ASP-N peptide residues 364-398 …],1
3,RVTKC(Cam)C(Cam)TESLVNRRPC(Cam)FSALEVDETYVPKEFNAETFTFHA [HSA ASP-N peptide residues 495-535 …],1

# Target: T1, LFA-1 (CD11a) on immune cells (human, UniProt P20701 26-1170; P05107 23-769)
# T1 construct: whole, on cells; On acetone-fixed cytospin preparations of human PBMC or THP-1 cells; also called β2-integrin
# Test: effect of peptide pre-incubation on HI111 staining of LFA-1 on PBMC cytospins
# T1 sequence (P20701 26-1170, chain 1 of 2): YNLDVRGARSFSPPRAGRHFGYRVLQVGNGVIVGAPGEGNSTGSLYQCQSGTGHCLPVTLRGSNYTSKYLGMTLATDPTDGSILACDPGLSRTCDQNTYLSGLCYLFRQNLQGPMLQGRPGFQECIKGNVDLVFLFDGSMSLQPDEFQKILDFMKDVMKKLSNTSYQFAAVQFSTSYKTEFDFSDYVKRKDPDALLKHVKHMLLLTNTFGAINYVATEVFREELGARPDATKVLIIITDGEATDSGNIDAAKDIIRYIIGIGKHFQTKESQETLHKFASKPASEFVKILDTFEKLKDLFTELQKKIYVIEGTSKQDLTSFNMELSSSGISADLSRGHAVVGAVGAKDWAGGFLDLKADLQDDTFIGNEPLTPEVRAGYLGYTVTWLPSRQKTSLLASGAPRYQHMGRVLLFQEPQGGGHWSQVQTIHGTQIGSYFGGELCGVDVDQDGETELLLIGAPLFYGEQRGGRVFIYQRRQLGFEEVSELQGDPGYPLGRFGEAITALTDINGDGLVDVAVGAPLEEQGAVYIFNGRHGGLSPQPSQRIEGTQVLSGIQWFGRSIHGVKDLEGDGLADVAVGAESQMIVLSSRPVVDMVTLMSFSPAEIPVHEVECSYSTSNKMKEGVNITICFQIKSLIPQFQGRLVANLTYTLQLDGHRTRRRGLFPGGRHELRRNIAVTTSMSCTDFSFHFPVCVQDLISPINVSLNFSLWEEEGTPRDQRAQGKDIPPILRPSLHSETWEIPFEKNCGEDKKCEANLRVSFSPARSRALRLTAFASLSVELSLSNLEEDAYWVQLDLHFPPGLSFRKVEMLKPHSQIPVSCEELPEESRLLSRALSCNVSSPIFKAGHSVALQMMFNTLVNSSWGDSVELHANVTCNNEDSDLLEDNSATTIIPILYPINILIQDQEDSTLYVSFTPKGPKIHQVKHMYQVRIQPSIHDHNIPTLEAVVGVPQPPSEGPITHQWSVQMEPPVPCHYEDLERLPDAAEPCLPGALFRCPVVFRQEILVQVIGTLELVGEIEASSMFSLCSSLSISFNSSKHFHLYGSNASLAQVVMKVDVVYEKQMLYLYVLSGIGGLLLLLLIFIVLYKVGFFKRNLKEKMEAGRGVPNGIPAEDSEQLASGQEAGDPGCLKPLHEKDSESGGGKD
# T1 sequence (P05107 23-769, chain 2 of 2): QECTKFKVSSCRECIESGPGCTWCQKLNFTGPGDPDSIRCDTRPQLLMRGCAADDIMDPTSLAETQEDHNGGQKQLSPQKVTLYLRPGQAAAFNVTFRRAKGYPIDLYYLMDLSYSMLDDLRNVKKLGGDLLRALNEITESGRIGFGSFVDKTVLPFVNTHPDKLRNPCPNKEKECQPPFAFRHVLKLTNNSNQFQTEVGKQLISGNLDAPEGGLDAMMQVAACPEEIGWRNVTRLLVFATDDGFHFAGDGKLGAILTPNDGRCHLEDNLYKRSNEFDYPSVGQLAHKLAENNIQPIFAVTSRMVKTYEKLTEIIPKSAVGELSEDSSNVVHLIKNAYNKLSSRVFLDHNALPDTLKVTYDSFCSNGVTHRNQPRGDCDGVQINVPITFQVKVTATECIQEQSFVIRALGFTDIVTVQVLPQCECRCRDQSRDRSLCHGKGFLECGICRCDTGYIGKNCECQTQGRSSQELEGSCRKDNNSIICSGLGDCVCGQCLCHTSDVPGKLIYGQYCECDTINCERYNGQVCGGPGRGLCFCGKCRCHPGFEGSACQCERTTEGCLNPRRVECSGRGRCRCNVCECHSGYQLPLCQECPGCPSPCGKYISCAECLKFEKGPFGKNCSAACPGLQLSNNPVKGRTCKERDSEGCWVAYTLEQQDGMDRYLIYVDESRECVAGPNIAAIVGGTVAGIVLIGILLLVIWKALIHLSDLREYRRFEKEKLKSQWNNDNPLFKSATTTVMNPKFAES
row,binding result,Molecule
1,binds,NEETFLKKYLYE (Synthetic (CSBio); also called E5K peptide 2605) [synthesized albumin peptide 2605 NEETFLKKYLYE]

# Target: T1, LFA-1 (CD11a) on immune cells
# Test: inferred from modulation of HI111 staining of LFA-1 on mononuclear blood cells
row,binding result,Molecule
1,binds,VFDEFKPLVEEPQNLIK (Synthetic (CSBio); also called 80) [synthesized albumin peptide 3028 VFDEFKPLVEEPQNLIK]

# Target: T1, LFA-1 (CD11a) on immune cells
# Test: effect of peptide pre-incubation on HI111 staining of LFA-1 on PBMC and THP-1 cytospins
row,binding result,Molecule
1,binds,KLDELRDEGKAS (Synthetic (CSBio); also called E5K peptide 2606) [synthesized albumin peptide 2606 KLDELRDEGKAS]

# Target: artificial cell surface (ACS): biotinylated cell surface proteins from human mononuclear blood cells coupled to streptavidin-sepharose
# Test: ACS affinity column adsorption of tryptic dHSA peptides, MALDI-TOF ms; first of two lines for this peptide
row,"Per cent adsorbed (per cent adsorbed, printed as fraction)",Molecule
1,0.26,QEPERNEC(Cam)FLQHK [HSA tryptic peptide residues 118-130 …]

# Target: artificial cell surface (ACS): biotinylated cell surface proteins from human mononuclear blood cells coupled to streptavidin-sepharose
# Test: ACS affinity column adsorption of tryptic dHSA peptides, MALDI-TOF ms; second of two lines for this peptide
row,"Per cent adsorbed (per cent adsorbed, printed as fraction)",Molecule
1,0.18,QEPERNEC(Cam)FLQHK [HSA tryptic peptide residues 118-130 …]
